Experimental data as given in patent publication US20240173425A1, “HUMAN CD33 ANTIBODIES AND GLUCOCORTICOID CONJUGATES” (Eli Lilly and Company, priority 2022, published 2024).

System: primary human monocyte cells
Assay: Antibody internalization (pHrodo Red, flow cytometry)
Type: cell-based
Conditions: pHrodo-labeled antibodies 10 μg/mL, 2 hours at 37° C.
Procedure: Exemplified anti-human CD33 antibodies were labeled with pHrodo™ Red, amine-reactive dye (Thermo Fisher, P36014). The pH-sensitive dye was a non-fluorescent when outside the cells but fluoresces brightly in acidic low-pH lysosomes. This property allows visualization and qualification of the internalization of an antibody by flow cytometry. Human PBMCs (500 K/well) were incubated on ice in FACS buffer for 30 min, to quiesce baseline internalization. Cells were stained with pHrodo-labeled antibodies (10 μg/mL) in FACS buffer for 1 hour on ice then transferred to 37° C. for 2 hours. Cells were then stained with the remaining panel of surface detection marker: CD45 mAb (clone HI30); CD11b (clone ICRF44); CD14 (clone M5E2).

B1: Gemtuzumab: Gemtuzumab (hIgG4PAA), comparator anti-CD33 antibody in the internalization assay (antibody, chains of the INN, looked up, V domains shown)
VH: EVQLVQSGAEVKKPGSSVKVSCKASGYTITDSNIHWVRQAPGQSLEWIGYIYPYNGGTDYNQKFKNRATLTVDNPTNTAYMELSSLRSEDTAFYYCVNGNPWLAYWGQGTLVTVSS
VL: DIQLTQSPSTLSASVGDRVTITCRASESLDNYGIRFLTWFQQKPGKAPKLLMYAASNQGSGVPSRFSGSGSGTEFTLTISSLQPDDFATYYCQQTKEVPWSFGQGTKVEVK
modifications: hIgG4PAA
notes: Gemtuzumab (hIgG4PAA), comparator anti-CD33 antibody in the internalization assay
B1 was tested, and the “% Internalization” value was 50.55 ± 2.899% and the “% Internalization” value (listed as Gemtuzumab (hIgG4PAA)) was “about 50%”.
